Here are results for 1 molecule from patent publication US6794147 (Pfizer, dated 2004).

In this assay the target is T1, mouse MLH1 (endogenous, mouse testicular lysates) (mouse, UniProt Q9JK91 1-760).
T1 construct: Endogenous protein immunoprecipitated from mouse testicular lysates
T1 sequence (looked up): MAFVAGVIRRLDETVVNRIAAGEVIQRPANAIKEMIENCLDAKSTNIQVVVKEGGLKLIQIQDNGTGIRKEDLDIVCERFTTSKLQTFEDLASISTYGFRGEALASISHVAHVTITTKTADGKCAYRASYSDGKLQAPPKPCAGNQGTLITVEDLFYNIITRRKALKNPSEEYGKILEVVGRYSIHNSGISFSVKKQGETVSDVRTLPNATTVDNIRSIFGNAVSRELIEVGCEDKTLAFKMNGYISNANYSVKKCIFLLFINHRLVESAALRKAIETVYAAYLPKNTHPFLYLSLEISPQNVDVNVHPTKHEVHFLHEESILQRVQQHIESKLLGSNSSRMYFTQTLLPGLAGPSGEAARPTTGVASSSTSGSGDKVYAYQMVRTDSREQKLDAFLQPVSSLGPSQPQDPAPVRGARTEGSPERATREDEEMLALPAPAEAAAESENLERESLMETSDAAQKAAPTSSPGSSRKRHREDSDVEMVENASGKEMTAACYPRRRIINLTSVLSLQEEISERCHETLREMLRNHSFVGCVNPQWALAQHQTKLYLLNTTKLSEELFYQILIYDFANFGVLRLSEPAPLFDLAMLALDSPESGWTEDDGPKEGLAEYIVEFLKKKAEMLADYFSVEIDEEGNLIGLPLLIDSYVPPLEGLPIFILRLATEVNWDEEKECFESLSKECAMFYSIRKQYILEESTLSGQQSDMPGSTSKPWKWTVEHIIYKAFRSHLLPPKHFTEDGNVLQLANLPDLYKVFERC
Nature of the assay: co-immunoprecipitation from mouse testicular lysates with anti-RAD51 antibody, Western blotting. For orientation: A western blot detects proteins with antibodies after separation by electrophoresis.

B1: mouse RAD51 (endogenous, mouse testicular lysates) (other, UniProt Q08297 2-339, looked up)
chain: AMQMQLEASADTSVEEESFGPQPISRLEQCGINANDVKKLEEAGYHTVEAVAYAPKKELINIKGISEAKADKILTEAAKLVPMGFTTATEFHQRRSEIIQITTGSKELDKLLQGGIETGSITEMFGEFRTGKTQICHTLAVTCQLPIDRGGGEGKAMYIDTEGTFRPERLLAVAERYGLSGSDVLDNVAYARGFNTDHQTQLLYQASAMMVESRYALLIVDSATALYRTDYSGRGELSARQMHLARFLRMLLRLADEFGVAVVITNQVVAQVDGAAMFAADPKKPIGGNIIAHASTTRLYLRKGRGETRICKIYDSPCLPEAEAMFAINADGVGDAKD
notes: Endogenous protein immunoprecipitated from mouse testicular lysates
B1: the binding result is reported as “no binding”.
